One substance from patent US9109032 can be followed below.

This test has as its target EphA3 antigen (UniProt P29320). In words: ELISA.
Chain of UniProt P29320 (P29320 21-541 limits assumed): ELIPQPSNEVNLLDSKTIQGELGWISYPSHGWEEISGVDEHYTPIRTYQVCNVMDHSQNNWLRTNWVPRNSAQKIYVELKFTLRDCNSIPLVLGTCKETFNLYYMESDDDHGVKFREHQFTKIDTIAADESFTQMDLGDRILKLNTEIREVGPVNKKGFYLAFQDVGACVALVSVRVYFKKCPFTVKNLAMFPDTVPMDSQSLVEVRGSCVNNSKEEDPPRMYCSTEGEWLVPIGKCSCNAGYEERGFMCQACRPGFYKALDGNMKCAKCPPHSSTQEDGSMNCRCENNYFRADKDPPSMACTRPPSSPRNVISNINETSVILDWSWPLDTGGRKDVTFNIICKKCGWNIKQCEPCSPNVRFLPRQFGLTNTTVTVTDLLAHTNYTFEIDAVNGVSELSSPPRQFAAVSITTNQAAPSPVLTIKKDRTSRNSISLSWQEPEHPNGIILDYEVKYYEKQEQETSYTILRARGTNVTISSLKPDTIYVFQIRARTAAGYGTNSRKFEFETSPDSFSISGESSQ

As for monoclonal antibody IIIA4, the AFFINITY is 2.5 nM.
